Test: HPLC analysis of SST before and after thiolation (elution time related to hydrophilicity)
Type: physicochemical
Details: chromatographic, C18 reversed-phase analytical column, linear gradient 26% to 39% acetonitrile in water with 0.1% TFA, 1.0 mL/min, detection at 274 nm
Description: Then, thiolated-SST labeled with (1.5 eq) eosin-5-maleimide. Eosin-5-maleimide solution was mixed with thiolated-SST, the reactants were stirred at 600rpm for 30 min. The products were purified by running in Sephadex G-25 mini-column, and identified by thin layer chromatography. HPLC analysis was performed for SST using a linear gradient from 26% to 39% acetonitrile in water, with 0.1% TFA as mobile phase at a flow rate of 1.0 mL/min using a C18-reversed phase analytical column.
The thiolation of SST was investigated using HPLC. […] The single peak eluted at about 19 min corresponded to SST. Thiolated-SST eluted at 18.6 min. The signal consists of multiple neighbouring peaks, these neighbouring peaks appeared between 20.5 and 23 min (Figure 7) and could be related to SST in isomerized form. Neither thiolated-SST nor SST degradation products were detected. Thiolated-SST eluted earlier than SST which is related to the increase in hydrophilicity.
Figure 7 HPLC chromatographs of SST reacted with Traut´s reagent. Signals were detected at 274 nm. Single peak eluted at about 19 min corresponded to SST. Thiolated-SST eluted at 18.6 min.

Somatostatin acetate [SST]
HPLC elution time (earlier elution related to increase in hydrophilicity): about 19 min

Thiolated-SST: SST thiolated using Traut's reagent
HPLC elution time (earlier elution related to increase in hydrophilicity): 18.6 min
